# Laboratory results as given in the DeepSol protein solubility set.
# Test: soluble on expression in E. coli; label from the status in PepcDB or PDB records
row,Sequence,soluble on expression in E. coli
1,MKQQDNPLIEQFLDALWLERNLAENTLASYRLDLHALVGWLTHHNSDLLRASPQDLQSFLAERIEGGYKATSSARLLSAMRRLFQYLYREKLREDDPTALLSSPKLPQRLPKDLSEAQVDALLNSPNVDIPLELRDKAMLEVLYATGLRVSELVGLTISDVSLRQGVVRVIGKGNKERLVPLGEEAVYWIENYMEHGRPWLVNGASLDVLFPSNRSQQMTRQTFWHRIKHYAILAGIDSERLSPHVLRHAFATHLLNHGADLRVVQMLLGHSDLSTTQIYTHVATERLRQLHQQHHPRA,not soluble
2,MKQVCVLGNGQLGRMLRQAGEPLGIAVWPVGLDAEPTAVPVQQSVITAEIERWPETALTRELARHPAFVNRDVFPIIADRLTQKQLFDKLGLATAPWQLLTSTDEWSGIFDRLGELAIIKRRVGGYDGRGQWRLRADETGQLPDDCYGECIVERGIHFSGEVSLVGARAHDGSTVFYPLTHNLHQDGILRTSVAFPQANAEQQEQAESMLSAIMQALNYVGVMAMECFITPEGLLINELAPRVHNSGHWTQNGASISQFELHLRAITGLPLPAPVINAPSVMINLIGSELNYDWLKLPLVHLHWYDKAVRPGRKVGHLNLTDSDTSRLSATLEALSPLLPGEYASGIIWAQSKLK,not soluble
3,MKRAVVVFSGGQDSTTCLVQALQQYDEVHCVTFDYGQRHRAEIDVARELALKLGARAHKVLDVTLLNELAVSSLTRDSIPVPDYEPEADGIPNTFVPGRNILFLTLAAIYAYQVKAEAVITGVCETDFSGYPDCRDEFVKALNHAVSLGMAKDIRFETPLMWIDKAETWALADYYGKLDLVRNETLTCYNGIKGDGCGHCAACNLRANGLNHYLADKPTVMAAMKQKTGLR,not soluble
4,MKRDGHTHTEFCPHGTHDDVEEMVLKAIELDFDEYSIVEHAPLSSEFMKNTAGDKEAVTTASMAMSDLPYYFKKMNHIKKKYASDLLIHIGFEVDYLIGYEDFTRDFLNEYGPQTDDGVLSLHFLEGQGGFRSIDFSAEDYNEGIVQFYGGFEQAQLAYLEGVKQSIEADLGLFKPRRMGHISLCQKFQQFFGEDTSDFSEEVMEKFRVILALVKKRDYELDFNTAGLFKPLCGETYPPKKIVTLASELQIPFVYGSDSHGVQDIGRGYSTYCQKLEHHHHHH,soluble
5,MKRGTITIDGKGNVHIPSTPVWMSACEIADLFGAFSGKVSVQIKTIFKEGLLMETEAMRTIQSGQGFIDLYGIEMITMLSFRIATPQAKTLRRWIIDRLSGKNSSSSPLIVCYTLGKRYN,not soluble
6,MKRQRVVVKIGSSSLTDPKGGLCHDKLFDHVEAIAYLKQLGHDVILITSGAVAAGFGPLGYPARPTTIAGKQAAAAVGQSLLMQAYSSAFAQFGFTAAQLLLTRSDFYSRERFRNLFATITTLLENGAVPIINENDSVSIEELTFGDNDMLSALVAGFLHADALILLTDINGLYDANPKTNPQAKKYAFLPEITDEMIEAAGGIGSAVGTGGMRSKLLAARKALSFGVSVFIGAGSGKEKLADILAGKGDGTYIGAPFPKQMQMRKQWIAYHAPVAGTVTVDSGAEEALLMRGKSLLPAGVTAVSGDFHAMDVVDVVNEKGITIGRGQVYYAAADLEKVKGLPSEEARQYSYLHRPEVIHRDNWVTLRKESVSK,not soluble
7,MKRTGILLVNLGTPKDSSKTEVRKYLKTFLSDRRVIKIHPIIWKPILNGIILNIRPKKSAKLYQKICTENGFPLLEYTEKQMENLKNICPEVEVTIGMSYSEPSIETALDTLLSKEIEELNVIPMYPQYSGTTVGSVFDSVMNYFIKSDRIVDIKFIRSFYNNPQYIDYFSKKINEALNESPIDAIVFSYHGIPMSYVKDGDNYPKECTK,not soluble
8,MKRVGKQTWVFDDGVYIQAAAAAVGPLEADGPLGSYFDVCHRDLYCGEATWELAERRLMREAVDCCLQKAGVSAEEVDLLLAGDLLNQNATSNYVARELPIPFLCLFGACSTSMQTLAAAAAFVAGGLADRALAATSSHNATAERQFRYPTELGVQKPKTATFTVTGAGAALVGRAPGRWRVRAATIGKVVDAGLKNPLDMGAAMAPAAADTIEQHFRDLGVSPGDYDLIVTGDLSRVGSVIVRELLAESGYDVTDVYNDCGLMIYRPDQKVFAGGSGCACSAVVTYGYLLQELARGTFRRLFVVATGALLSQTMVQQKQSIPAIAHGVVIEAAGQEPDLPP,not soluble
9,MKRVVVTGIGMINALGLDKESSFKAICNGESGVNKITLFDATDFPVQIAAEVKNFDPLEVVDGKEVKKIDRFIQLGIKAAREAMQDAGFSEELDKEEFGIVSASGIGGLPNIEKNSIICSERGPRKISPFFIPSALVNMLGGLISIEHGLKGPNISCVTACAAGTHAIGEAYKSIALGNAKKMLVIGAEAAICPVGIGGFASMKALSTRNEDPQHASRPFDKERDGFVMGEGAGALVFEEYEEAKKRGATIYAELIGFGESADAHHITSPTLDGPLRAMKKALNMAGNPKVDYINAHGTSTPVNDKNETAAIKELFGNNIPLISSTKGQTGHCLGAAGAIEAVVSVMVLRDGVVPPTINQLVKDDECDLDYIPNISRKVDLKVVMSNSFGFGGTNGCVVFKKVD,soluble
10,MKRYVFMLSDGTGITAETLGNSLITQFENIQFEKITIPYIDSTHRAESVVLRINQCFSEQGTKPLVFMTLVDPEIRQAIKKAHACVFDLFSIFIGPLENELEEKSSYTVGRTHGVANVKSYSHRIEAIDFALSHDDGIKTRGYDKADIILIGVSRCGKTPSCLYMALQYGILAANYPFTEEDLVGFRLPEVLRPYKQKLFGLTIDAQRLQQIRSERRPNSKYASAEQCRLEVTEVEAMYQRENIPYINSTKYSIEEISTKVLAIAGLQRKILEHHHHHH,not soluble
11,MKSAEQWIDELQLESHPEGGFYRETIREVLKDGRRAPFSSIYFLLTDDNISHFHRIDADEVWYYHAGDSLTIHMINPDGEYTTATLGTDIQNGDVLQYVVPKGTIFASSIEFSNTYSLVGCMCQPAFEFKQFELFKQSELITQYPHLKSVIEKYALK,soluble
12,MKSFDGHNDLLARLWLSEHPDPVGMFLKGQLPGHLDFARCQQAQFAGGLFAIFVPPFDYVKNNHPYKLRKSAQAGFDTQDIHHIVFTQLDYIKQIASRSDRRIQICLSVEDIQFCLQQDIMAVVIHLEGAEVLDSEFGVLEQLHARGLRSIGPLWNLPNQFGHGLQASFPHSPDTGLGLTDQGKALIQLCSEKRIMIDVSHMNEKAFWDTAKISELPLIATHSNVHQLCPQPRNLTDAQLEAIQASQGCVGVNFDTAFLRPDGQRNAATSLDLILEHIEYLMHKLGEDQVAFGSDFDGGFISDHLKDVTGLIHLQQAFERRGYSQALQEKLCHQNWLSALQRVWHPAC,not soluble
13,MKSFIKIHKQDNVLLALRYIQKGERLHAYGVSIEVKDDIKRGHKIALQSIKENDSIVKYGFPIGHASQDISIGEHIHVHNTKTNLSDIQLYSYTPRFDENPYSNENRTFKGFRRENGDAGVRNELWIVPTVGCVNGIAEKMLQRFVRETGDIAPFDNVLVLKHQYGCSQLGDDHENTKQILLNAIRHPNAGGVLVLGLGCENNELARMKEALQDVNLKRVKFLESQSVTDEMEAGVALLKEIHEAAKGDKREDIPLSELKIGLKCGGSDGFSGITANPLLGRFSDYLIAQGGSTVLTEVPEMFGAETILMQRAANEEVFHKIVDLINDFKQYFIKHDQPVYENPSPGNKAGGISTLEDKSLGCTQKAGISPVTDVLKYGEVLKTKGLTLLSAPGNDLIASSALAAAGCQIVLFTTGRGTPFGTFVPTVKVATNTELYEAKPHWIDFNAGLLAEDDVHEEYVLREFIHYMIEVASGQLVNHEKNDFKELAIFKSGVTL,not soluble
14,MKSLSYKRIYKSQEYLATLGTIEYRSLFGSYSLTVDDTVFAMVSDGELYLRACEQSAQYCVKHPPVWLTYKKCGRSVTLNYYRVDESLWRNQLKLVRLSKYSLDAALKEKSTRNTRERLKDLPNMSFHLEAILGEVGRLAP,not soluble
15,MKSMSEYLNLLKEAIQNVVDGGWHETKRKGNTGIGKTFEDLLEKEEDNLDAPDFHDIEIKTHETAAKSLLTLFTKSPTNPRGANTMLRNRYGKKDEYGNNILHQTVSGNRKTNSNSYNYDFKIDIDWESQVVRLEVFDKQDIMIDNSVYWSFDSLQNQLDKKLKYIAVISAESKIENEKKYYKYNSANLFTDLTVQSLCRGIENGDIKVDIRIGAYHSGKKKGKTHDHGTAFRINMEKLLEYGEVKVIV,soluble
16,MKSMTGFGKKTIQNENYQLDIEVKSVNQRFLDIQLRMPKELNAYELVIRQVIKRTLKRGRVEVYVNLQKIGNNQKEVRVQWDLIDQLLTSVDQHLKEKYPEATFDAGDTVNHLLKQNDFVEIVEAEIVDQTFEPFLVQAFEAAIASLDQSRVQEGTQIKQVLLDYVAVLTQSIQELQAFVGVFEQEYRQRFEAKLNEWLGSQVDETRLLTEMAILLEKGDIHEELDRLDIHIDKLHQLLDETEPVGRELDFLIQEMNREVNTIGSKSSPIEIKNSVVQMKTTLEKIREQIQNVE,not soluble
17,MKSTDNSKPVPFFRGKLKFFQPKEHKISVDLVLFLSKIKPPKRNYRIIDLGAGFGFLSITLAKKYGVKVVAFEYDERMVKLLRKNVKLNGVEHLVEVVEGDIKEIEKHLSRGSFNLVVSNPPFYPINYSPNPEPYHFEVYATLKDFVRASSYLLKDGGELYLLSPCFRLYELTEYLSNFNLPLRKLSLIYPTPLKRARLAITVSVKNVKGQLECDKPLIINKENGEYTEEVKQLLENFL,soluble
18,MKSVKNSWNSSIKDGEYQRKESQFRNWITTDGSAGITGRGGFQAEAGRYHLYVSLACPWAHRTLIFRQLKGLEDLITVSVVHPDMHENGWSFKHDEESAKLYGTTGDNLYDGKFISEKYLAQDPDYSGVNSVPVLWDKKDKVIVNNESSEIIRMFNSAFNDITGNTLDFYPEHLREKIDHENELVYHKINNGVYKTGFATTQEAYDKNVNELFAALEQIDEKLSKQRYLTGDEITEADWRLWATLVRFDSVYHTHFKCNLKLIKEFSNIYNYMLELFQVPNVAKTVNEAHIKRHYYASHVAINPYGIVPIAHQQDWTAQHNRDKQFS,not soluble
19,MKSVQDALYNWLTIHIVAKARPHDAAARDTASFFRAILENDFGVTAVDAVKDETNGQYIVEYVRGGETRAACFPLELAEAMWRQIEAEPEKYG,not soluble
20,MKSYIVIGAGILGASTAYHLAKEGASVMIIDRGDKGQATDAAAGIVCPWLSQRRNQKWYRLAKGGAKFYPSLIEELESYGETETGYARVGALWLHTDEQKLEQMEERALKRREDAPEMGEIVRLHPQEAKELFPPLVGEHHALYVSGAARVNGRAVRDALMNASQKRGAAYIRGNARLLFEGSRIIGVEADGTKYAAEAVIVTAGAWAGELLEPLGIKLLVTPQKGQLIHLEHPECDTSHWPVVMPPNNQYMLAFPGSRIVIGTTHEDEAGMDIRPTAGGMHELLDKALAVAPGLSTWTYIETRVGFRPRTPGFLPIFGPLPGFSGVYIANGLGSSGLTVGPYLGKELAKLVIGLPTELDPSDYDVASAVAPIVQ,not soluble
21,MKTASYAQSFSRAAKEYDAYAYLQQTVARELASWIEGMECESILDLGCGTGALWRALRFKPRFFTGVDLSMEMLDLHPQDPAIRLIQSDFNHPSLYEHSYDLIAASSSLQWSRDLAQSFDLIAKSAQNVAFAIFTSESLWEIHDYVDSHSPIPSKERIESLLKERFAGEFELKRYPLSFPSRVAMLSYLKGSGISGGRRLGFAQSKKLIQSAPFERLTFEVLFFVGKPLKADQK,not soluble
22,MKTAYIAKQRQISFVKSHFSRQLEERLGLIEVQAPILSRVGDGTQDNLSGAEKAVQVKVKALPDAQFEVVHSLAKWKRQTLGQHDFSAGEGLYTHMKALRPDEDRLSPLHSVYVDQWDWERVMGDGERQFSTLKSTVEAIWAGIKATEAAVSEEFGLAPFLPDQIHFVHSQELLSRYPDLDAKGRERAIAKDLGAVFLVGIGGKLSDGHRHDVRAPDYDDWSTPSELGHAGLNGDILVWNPVLEDAFELSSMGIRVDADTLKHQLALTGDEDRLELEWHQALLRGEMPQTIGGGIGQSRLTMLLLQLPHIGQVQAGVWPAAVRESVPSLL,soluble
